One block for each binder: values may come before it.
How the values were obtained:
Assay in all cases: protein array
[1] = target: T1, Atpase secretory pathway ca2+ transporting 1 (human, UniProt P98194 1-909)
T1 construct: on protein array; also called ATP2C1
T1 sequence: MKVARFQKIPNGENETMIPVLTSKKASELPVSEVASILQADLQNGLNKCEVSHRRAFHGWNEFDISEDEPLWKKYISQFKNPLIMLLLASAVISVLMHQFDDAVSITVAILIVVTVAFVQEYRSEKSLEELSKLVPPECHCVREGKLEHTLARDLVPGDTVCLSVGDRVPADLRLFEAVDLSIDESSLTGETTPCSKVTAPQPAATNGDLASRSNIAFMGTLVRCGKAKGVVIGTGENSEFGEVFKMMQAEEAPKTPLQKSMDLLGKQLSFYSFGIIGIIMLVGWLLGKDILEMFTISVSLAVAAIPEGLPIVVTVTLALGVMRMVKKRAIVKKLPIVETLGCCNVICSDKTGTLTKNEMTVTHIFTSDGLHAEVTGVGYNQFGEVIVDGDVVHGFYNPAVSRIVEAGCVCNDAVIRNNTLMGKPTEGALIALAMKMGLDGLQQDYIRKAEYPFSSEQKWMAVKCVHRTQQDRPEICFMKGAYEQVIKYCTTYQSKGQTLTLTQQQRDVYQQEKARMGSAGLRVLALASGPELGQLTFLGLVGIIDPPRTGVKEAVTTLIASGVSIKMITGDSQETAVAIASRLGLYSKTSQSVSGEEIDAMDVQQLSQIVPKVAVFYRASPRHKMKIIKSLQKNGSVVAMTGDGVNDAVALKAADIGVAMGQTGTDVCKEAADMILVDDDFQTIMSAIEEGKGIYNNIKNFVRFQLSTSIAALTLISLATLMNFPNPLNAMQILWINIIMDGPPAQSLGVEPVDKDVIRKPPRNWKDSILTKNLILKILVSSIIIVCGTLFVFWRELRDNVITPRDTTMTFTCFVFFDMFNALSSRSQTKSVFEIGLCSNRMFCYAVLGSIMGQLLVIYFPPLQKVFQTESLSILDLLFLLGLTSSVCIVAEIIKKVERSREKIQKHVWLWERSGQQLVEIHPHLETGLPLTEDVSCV

[2] = target: T2, teashirt zinc finger homeobox 2, transcript variant 1 (human, UniProt Q9NRE2 1-1034)
T2 construct: on protein array; also called TSHZ2
T2 sequence: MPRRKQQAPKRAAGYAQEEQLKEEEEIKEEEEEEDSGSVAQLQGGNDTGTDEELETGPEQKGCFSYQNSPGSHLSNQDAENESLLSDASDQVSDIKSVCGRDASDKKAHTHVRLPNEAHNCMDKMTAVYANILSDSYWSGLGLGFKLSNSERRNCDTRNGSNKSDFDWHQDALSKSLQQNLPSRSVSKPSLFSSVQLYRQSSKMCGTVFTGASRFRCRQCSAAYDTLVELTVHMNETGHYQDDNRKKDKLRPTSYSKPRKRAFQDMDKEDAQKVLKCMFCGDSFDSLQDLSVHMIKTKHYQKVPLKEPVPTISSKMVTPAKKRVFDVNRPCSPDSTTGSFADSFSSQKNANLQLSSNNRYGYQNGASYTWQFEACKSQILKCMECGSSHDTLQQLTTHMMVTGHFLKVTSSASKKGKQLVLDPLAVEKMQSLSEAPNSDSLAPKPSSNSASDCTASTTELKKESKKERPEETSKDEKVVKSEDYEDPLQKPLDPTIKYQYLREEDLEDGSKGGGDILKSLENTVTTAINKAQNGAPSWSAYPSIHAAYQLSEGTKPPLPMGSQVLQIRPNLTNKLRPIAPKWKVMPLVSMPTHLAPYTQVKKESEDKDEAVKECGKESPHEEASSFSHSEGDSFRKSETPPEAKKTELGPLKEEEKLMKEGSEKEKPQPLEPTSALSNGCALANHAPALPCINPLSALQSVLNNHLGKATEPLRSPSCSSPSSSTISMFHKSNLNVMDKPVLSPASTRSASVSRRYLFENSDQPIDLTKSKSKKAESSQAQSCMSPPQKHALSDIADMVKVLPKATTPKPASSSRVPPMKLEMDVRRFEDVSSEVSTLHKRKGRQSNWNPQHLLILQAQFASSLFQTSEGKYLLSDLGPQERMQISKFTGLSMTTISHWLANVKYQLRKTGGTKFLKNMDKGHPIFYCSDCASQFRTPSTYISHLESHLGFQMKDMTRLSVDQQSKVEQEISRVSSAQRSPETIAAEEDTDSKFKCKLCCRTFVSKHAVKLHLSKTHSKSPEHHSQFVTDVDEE

[3] = target: T3, glycogen phosphorylase L, transcript variant 1 (human, UniProt P06737 2-847)
T3 construct: on protein array; also called PYGL
T3 sequence: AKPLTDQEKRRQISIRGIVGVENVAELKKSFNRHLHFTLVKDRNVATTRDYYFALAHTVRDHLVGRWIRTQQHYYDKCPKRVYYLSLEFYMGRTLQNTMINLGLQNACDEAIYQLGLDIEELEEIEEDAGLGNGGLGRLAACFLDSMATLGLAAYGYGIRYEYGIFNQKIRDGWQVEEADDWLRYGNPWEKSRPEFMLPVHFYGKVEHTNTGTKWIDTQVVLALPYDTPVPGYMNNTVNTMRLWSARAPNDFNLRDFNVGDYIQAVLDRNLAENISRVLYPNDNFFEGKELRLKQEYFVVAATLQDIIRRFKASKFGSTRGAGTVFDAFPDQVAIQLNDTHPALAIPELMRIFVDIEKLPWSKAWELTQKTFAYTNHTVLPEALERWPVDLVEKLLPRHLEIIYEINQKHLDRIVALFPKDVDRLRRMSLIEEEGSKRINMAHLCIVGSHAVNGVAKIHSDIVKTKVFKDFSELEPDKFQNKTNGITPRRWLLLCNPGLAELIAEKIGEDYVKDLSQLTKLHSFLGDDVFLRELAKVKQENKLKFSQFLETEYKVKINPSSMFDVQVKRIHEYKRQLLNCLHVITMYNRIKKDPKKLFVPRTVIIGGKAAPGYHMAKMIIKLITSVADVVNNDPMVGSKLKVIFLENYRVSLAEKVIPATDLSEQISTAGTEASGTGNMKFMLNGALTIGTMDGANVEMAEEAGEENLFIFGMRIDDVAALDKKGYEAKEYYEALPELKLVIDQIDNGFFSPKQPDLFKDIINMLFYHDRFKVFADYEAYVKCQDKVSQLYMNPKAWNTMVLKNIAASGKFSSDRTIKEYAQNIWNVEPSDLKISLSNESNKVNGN

[4] = target: T4, synaptotagmin 12, transcript variant X4 (human, UniProt Q8IV01 1-421)
T4 construct: on protein array; also called SYT12
T4 sequence: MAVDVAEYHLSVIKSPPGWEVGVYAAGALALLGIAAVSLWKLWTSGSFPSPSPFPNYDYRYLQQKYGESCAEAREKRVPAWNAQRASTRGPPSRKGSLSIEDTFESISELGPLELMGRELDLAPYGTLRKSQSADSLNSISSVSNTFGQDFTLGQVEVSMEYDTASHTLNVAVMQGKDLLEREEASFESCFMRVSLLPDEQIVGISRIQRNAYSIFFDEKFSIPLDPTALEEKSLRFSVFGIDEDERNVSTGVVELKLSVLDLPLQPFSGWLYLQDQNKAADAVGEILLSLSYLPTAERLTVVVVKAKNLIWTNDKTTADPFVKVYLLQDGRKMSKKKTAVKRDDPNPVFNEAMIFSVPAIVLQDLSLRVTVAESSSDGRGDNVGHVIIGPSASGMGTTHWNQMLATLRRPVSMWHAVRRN

Reticulocalbin 3 = target: T5, Reticulocalbin 3 (human, UniProt Q96D15 21-328)
T5 construct: on protein array; also called RCN3
T5 sequence: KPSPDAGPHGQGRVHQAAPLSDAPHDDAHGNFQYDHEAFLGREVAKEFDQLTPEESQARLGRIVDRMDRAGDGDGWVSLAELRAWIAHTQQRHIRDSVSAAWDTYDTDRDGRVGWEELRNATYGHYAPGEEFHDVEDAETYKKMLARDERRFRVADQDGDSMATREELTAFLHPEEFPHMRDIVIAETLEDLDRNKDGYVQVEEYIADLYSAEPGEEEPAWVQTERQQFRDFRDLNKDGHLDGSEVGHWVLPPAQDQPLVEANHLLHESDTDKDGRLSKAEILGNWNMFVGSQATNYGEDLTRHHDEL

[5] = target: T6, NCCRP1, F-box associated domain containing (human, UniProt Q6ZVX7 1-275)
T6 construct: on protein array
T6 sequence: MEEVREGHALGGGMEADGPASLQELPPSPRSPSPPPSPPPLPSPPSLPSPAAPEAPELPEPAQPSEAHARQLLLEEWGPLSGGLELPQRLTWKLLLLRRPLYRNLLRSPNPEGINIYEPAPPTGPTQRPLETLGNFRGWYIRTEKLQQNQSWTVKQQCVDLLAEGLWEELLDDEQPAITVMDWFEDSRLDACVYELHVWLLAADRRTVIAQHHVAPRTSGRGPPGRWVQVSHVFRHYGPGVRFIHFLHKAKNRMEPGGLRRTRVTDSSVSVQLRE

[6] = target: T7, coiled-coil domain containing 102A, transcript variant X1 (human, UniProt Q96A19 1-550)
T7 construct: on protein array; also called CCDC102A

[7] = target: T8, RNA binding motif protein 47, transcript variant X10 (human, UniProt A0AV96 1-593)
T8 construct: on protein array; also called RBM47
T8 sequence: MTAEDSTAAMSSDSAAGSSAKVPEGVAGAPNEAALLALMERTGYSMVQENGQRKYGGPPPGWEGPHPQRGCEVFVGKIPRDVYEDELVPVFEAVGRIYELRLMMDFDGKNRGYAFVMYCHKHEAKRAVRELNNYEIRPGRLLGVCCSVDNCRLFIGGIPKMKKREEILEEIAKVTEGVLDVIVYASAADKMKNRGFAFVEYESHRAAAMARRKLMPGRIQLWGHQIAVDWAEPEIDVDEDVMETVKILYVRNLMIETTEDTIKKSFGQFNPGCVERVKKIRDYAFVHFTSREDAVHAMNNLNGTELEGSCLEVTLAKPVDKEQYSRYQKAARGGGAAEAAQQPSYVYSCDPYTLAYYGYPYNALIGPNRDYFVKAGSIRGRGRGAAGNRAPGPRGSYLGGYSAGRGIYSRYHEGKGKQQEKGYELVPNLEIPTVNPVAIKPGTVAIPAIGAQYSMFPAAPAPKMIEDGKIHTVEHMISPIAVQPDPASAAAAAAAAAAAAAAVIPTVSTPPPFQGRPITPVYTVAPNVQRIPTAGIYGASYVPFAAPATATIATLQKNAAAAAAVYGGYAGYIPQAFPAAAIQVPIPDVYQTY

T7 sequence (Q96A19 other isoform, or with tags, fused parts or gaps mutant limits assumed): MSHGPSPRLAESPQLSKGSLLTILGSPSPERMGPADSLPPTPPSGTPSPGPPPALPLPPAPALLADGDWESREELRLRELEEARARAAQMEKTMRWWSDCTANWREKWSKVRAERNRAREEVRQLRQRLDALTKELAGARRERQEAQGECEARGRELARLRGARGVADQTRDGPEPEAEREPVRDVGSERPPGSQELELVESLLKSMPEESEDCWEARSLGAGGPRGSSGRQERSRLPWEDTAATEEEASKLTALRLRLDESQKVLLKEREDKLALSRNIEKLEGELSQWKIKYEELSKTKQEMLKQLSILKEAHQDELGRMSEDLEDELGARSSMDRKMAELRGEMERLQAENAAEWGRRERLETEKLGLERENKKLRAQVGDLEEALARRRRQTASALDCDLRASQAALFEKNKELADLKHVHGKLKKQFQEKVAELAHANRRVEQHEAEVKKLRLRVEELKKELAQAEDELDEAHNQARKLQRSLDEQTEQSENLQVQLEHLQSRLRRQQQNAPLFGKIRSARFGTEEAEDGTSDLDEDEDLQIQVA

binding result [1]: binds | binding result [2]: binds
B1: TESO1006 (antibody, V domains shown)
VH: QLHLQESGPGLVKPSETLSLTCTVSGGSVSSSSYYWGWVRQPPGKGLEWIGHVYYSGRTYYNPSLKSRATISLDTSKNQFSLKLSSLTATDTAVYYCATIVAAYSYGFEFDPWGQGILVIVSS
VL: QSVLTQPPSVSAAPGQKVTISCSGGSSNIGNNYVSWYQQLPGTAPKLIIYDNDKRPAGIPDRFSGSKSGSSATLGITGLQNGDEAEYYCGTWDSSLGGGVFGGGTKVTVLG
notes: VH/VL only

binding result [3]: binds | binding result [4]: binds | binding result (Reticulocalbin 3): binds
B2: TBLA1007 (antibody, V domains shown)
VH: QVQLVQSGAEVKKPGASVKVSCKASGYTFTNYGFSWVRQAPGQGLEWMGRITTYNRDTIYAQKFQGRVTMTTDTSTSTAYMELRSLRSDDTAVYFCARVVPGDSVYGAFDIWGQGTMVTVSS
VL: DIQMTQSPSSLSASVGDRVTITCRASQSISSYLNWYQQKPGRAPRLLIYAASRLQIGVPSRFSGSGSGTDFTLTISSLQPEDFATYYCQQSYRMPCSFGQGTKLEI
notes: VH/VL only

binding result [5]: binds | binding result [6]: binds
B3: THNS1003 (antibody, V domains shown)
VH: VVQLVESGGGLVQPGGSLRLSCAASGFTFNNYEMNWVRQAPGKGLEWVSYISSSGSTIYYADSVKGRFTISRDNAKNSLYLQMNSLRAEDTAVYYCARQMVTTRGYWGQGTLVTVSS
VL: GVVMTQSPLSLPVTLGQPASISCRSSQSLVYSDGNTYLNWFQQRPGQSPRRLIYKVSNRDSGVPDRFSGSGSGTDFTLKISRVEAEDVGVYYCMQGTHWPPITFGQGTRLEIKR
notes: VH/VL only

binding result [7]: binds
B4: THNS1004 (antibody, V domains shown)
VH: EVQLVESGGGLVQPGGSLRLSCAASGFTFSSNWMSWVRQAPGKGLEWVANIKEDGSEKYYVDSVKGRFTIFRDNAKNSLYLQMNSLRAEDTAVYYCARVPSRYGRSRGAFDIWGQGTMVTVSS
VL: DIQMTQSPSSLSASVGDRVTITCRASQSISSYLNWYQQKPGKAPKLLIYAASSLQSGVPSRFSGSGSGTDFTLAISSLQPEDFATYYCHQTYSTRLTFGGGTEVEIKR
notes: VH/VL only

Source: patent US20220204643A1 (published 2022)
